Data reported in article PMC10535226, “Rapid SERS Detection of Botulinum Neurotoxin Type A”.
Read-outs that look alike come from different tables or passages of the source.

What was measured:
[1] = biological target: T1, Botulinum neurotoxin type A (Xeomin) (Clostridium botulinum serotype A, UniProt P0DPI1 2-1296); experiment: BLI; settings: protein: commercial
T1 sequence (P0DPI1 2-1296): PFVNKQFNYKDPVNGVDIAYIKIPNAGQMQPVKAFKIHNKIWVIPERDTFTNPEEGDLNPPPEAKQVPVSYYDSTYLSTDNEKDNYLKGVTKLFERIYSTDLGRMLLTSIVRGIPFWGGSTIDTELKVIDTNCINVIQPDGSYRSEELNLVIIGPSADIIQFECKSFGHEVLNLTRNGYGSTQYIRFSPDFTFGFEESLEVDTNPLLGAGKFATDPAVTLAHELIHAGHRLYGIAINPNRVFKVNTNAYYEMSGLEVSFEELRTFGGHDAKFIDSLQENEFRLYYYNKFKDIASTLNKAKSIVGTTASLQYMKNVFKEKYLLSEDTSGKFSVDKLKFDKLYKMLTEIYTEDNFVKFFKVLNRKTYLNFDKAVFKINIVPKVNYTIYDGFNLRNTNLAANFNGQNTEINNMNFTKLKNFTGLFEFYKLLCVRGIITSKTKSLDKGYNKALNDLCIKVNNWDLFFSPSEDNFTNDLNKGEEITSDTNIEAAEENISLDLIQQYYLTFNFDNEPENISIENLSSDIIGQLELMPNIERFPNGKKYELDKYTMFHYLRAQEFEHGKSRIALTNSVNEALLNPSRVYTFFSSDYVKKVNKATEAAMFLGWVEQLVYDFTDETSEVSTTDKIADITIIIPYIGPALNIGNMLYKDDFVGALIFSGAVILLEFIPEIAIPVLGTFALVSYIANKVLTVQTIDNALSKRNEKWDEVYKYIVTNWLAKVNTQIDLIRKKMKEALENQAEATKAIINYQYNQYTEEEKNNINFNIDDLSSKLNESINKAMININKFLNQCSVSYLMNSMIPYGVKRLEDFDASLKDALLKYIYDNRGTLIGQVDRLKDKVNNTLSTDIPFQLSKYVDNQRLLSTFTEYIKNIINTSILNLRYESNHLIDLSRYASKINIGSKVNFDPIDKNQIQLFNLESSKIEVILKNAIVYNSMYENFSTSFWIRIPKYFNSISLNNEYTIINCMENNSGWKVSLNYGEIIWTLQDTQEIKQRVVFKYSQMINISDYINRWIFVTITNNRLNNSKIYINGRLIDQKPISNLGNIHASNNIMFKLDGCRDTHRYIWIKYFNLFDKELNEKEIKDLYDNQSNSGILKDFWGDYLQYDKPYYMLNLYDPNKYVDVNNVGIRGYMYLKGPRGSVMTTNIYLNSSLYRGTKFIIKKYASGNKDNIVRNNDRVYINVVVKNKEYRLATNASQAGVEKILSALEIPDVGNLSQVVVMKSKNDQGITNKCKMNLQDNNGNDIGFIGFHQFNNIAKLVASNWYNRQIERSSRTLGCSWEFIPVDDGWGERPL

[2] = biological target: Botulinum neurotoxin type A (Xeomin) (Clostridium botulinum serotype A, UniProt P0DPI1 2-1296); experiment: SERS aptasensor; settings: protein: commercial; label: 3' TAMRA
Target sequence in this assay (P0DPI1 2-1296): as above

[3] = biological target: T1, Botulinum neurotoxin type A (Xeomin)

B1: Apt_2.22 (structured_DNA)
DNA: ATACCAGCTTATTCAATTGACATGACTGGGATTTTTGGCGAAATCGAAGGAAGCGGAGAGATAGTAAGTGCAATCT
Kd [1]: 7 ± 4 nM

B2: Apt_2.22_mod (structured_DNA)
DNA: B1 DNA
modifications: 5' SH-(CH2)6
binding result [2]: binds

AGTGCGGTGAGCCGTCGGACATACAAATAC (ssDNA) [SH-H8-TAMRA]
binding result [3]: no binding
